Laboratory results from PMC6667744 (Pharmacology Research & Perspectives, 2019).

Target: Nanoluc‐RXFP2 (UniProt Q8WXD0 1-754)
Assay: FRET or BRET

Sequence of Nanoluc‐RXFP2 (Q8WXD0 whole entry): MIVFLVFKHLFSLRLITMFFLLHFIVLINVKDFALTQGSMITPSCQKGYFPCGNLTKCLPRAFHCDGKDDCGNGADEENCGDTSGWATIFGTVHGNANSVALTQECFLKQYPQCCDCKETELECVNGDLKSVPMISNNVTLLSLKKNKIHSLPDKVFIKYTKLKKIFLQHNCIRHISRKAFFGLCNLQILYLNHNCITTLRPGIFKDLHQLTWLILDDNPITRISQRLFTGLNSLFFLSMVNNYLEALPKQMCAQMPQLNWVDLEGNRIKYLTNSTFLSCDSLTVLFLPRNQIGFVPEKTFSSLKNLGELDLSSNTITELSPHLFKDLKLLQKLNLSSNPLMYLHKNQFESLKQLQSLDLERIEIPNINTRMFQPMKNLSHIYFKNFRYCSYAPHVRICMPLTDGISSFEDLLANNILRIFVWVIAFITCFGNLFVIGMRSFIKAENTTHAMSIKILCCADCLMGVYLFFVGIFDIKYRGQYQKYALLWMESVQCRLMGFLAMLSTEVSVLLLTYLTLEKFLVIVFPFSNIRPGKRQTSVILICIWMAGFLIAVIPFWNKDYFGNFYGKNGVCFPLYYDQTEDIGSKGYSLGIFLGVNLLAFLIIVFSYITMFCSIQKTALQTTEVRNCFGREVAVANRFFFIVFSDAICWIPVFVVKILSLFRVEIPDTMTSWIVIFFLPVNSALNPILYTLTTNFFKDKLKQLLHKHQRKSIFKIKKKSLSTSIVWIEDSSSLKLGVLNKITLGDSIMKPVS

BRET signal relative to that of Nanoluc-RXFP1 with mCitrine-RXFP1: ~75%
B1: mCitrine‐RXFP1 (receptor)
chain: QDVKCSLGYFPCGNITKCLPQLLHCNGVDDCGNQADEDNCGDNNGWSLQFDKYFASYYKMTSQYPFEAETPECLVGSVPVQCLCQGLELDCDETNLRAVPSVSSNVTAMSLQWNLIRKLPPDCFKNYHDLQKLYLQNNKITSISIYAFRGLNSLTKLYLSHNRITFLKPGVFEDLHRLEWLIIEDNHLSRISPPTFYGLNSLILLVLMNNVLTRLPDKPLCQHMPRLHWLDLEGNHIHNLRNLTFISCSNLTVLVMRKNKINHLNENTFAPLQKLDELDLGSNKIENLPPLIFKDLKELSQLNLSYNPIQKIQANQFDYLVKLKSLSLEGIEISNIQQRMFRPLMNLSHIYFKKFQYCGYAPHVRSCKPNTDGISSLENLLASIIQRVFVWVVSAVTCFGNIFVICMRPYIRSENKLYAMSIISLCCADCLMGIYLFVIGGFDLKFRGEYNKHAQLWMESTHCQLVGSLAILSTEVSVLLLTFLTLEKYICIVYPFRCVRPGKCRTITVLILIWITGFIVAFIPLSNKEFFKNYYGTNGVCFPLHSEDTESIGAQIYSVAIFLGINLAAFIIIVFSYGSMFYSVHQSAITATEIRNQVKKEMILAKRFFFIVFTDALCWIPIFVVKFLSLLQVEIPGTITSWVVIFILPINSALNPILYTLTTRPFKEMIHRFWYNYRQRKSMDSKGQKTYAPSFIWVEMWPLQEMPPELMKPDLFTYPCEMSLISQSTRLNSYS
